The record followed here is the RNAGym collection of RNA variant scans (doi:10.1093/molbev/msab373).

B1: Azoarcus group I ribozyme (parent)
chain: GUGCCUUGCGCCGGGAAACCACGCAAGGGAUGGUGUCAAAUUCGGCGAAACCUAAGCGCCCGCCCGGGCGUAUGGCAACGCCGAGCCAAGCUUCGGCGCCUGCGCCGAUGAAGGUGUAGAGACUAGACGGCACCCACCUAAGGCAAACGCUAUGGUGAAGGCAUAGUCCAGGGAGUGGCGAAAGUCACACAAACCGG

The series covers variants of B1. The experiment in a line: reverse-splicing fitness (ratio to wild type); higher = more active; in vitro selection; Mg2+ level not given. The gist of the method: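 An in vitro group I ribozyme library with randomized positions was T7-transcribed and gel-purified. In triplicate, 10 pmol RNA in EPPS pH 7.5 was reacted with 50 pmoles of a 30-nt RNA substrate for 1 h at 37 °C across several added MgCl2 levels (1–48 mM), then stopped with EDTA. Products were reverse transcribed from a substrate-complementary primer, PCR-amplified and sequenced (HiSeq 4000). Fitness is a variant's read proportion after selection over that before, normalised to wild type.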
Consider GUGCCUUGCGCCGGGAAACCACGCAAGGGAUGGUGUCAAAUUCGGCGAAACCUAAGCGCCCGCCCGGGCGUAUGGCAACGCCGAGCCAAGCUUCGGCGCCUGCGCCGAUGGAGGUGUAGCGACUAGACGGCACCCACCUAAGGCGAACGAUAUGGUGAAGGCAUAGUCUAGGGAGAGGCGAAAGUCACACAAACCGG [A111G A120C A145G C150A C169U U176A], for which the reverse-splicing fitness amounted to 0.0243. With GUGCCUUGCGCCGGGAAACCACGCAAGGGAUGGUGUCAAAUUCGGCGAAACCUAAGCGCCCGCCCGGGCGUAUGGCAACGCCGAGCCAAGCUUCGGCGCCUGCGCCGAUGGAGGUGUAGCGACUAGACGGCACCCACCUAAGGCGAACGAUAUGGUGAAGGCAUAGUCUAGGGAGGGGCGAAAGUCACACAAACCGG [A111G A120C A145G C150A C169U U176G], the reverse-splicing fitness is 0.00549. The same measure for GUGCCUUGCGCCGGGAAACCACGCAAGGGAUGGUGUCAAAUUCGGCGAAACCUAAGCGCCCGCCCGGGCGUAUGGCAACGCCGAGCCAAGCUUCGGCGCCUGCGCCGAUGGAGGUGUAGCGACUAGACGGCACCCACCUAAGGCGAACGAUAUGGUGAAGGCAUAGUCUAGGGAGCGGCGAAAGUCACACAAACCGG [A111G A120C A145G C150A C169U U176C]: 0.0231; for GUGCCUUGCGCCGGGAAACCACGCAAGGGAUGGUGUCAAAUUCGGCGAAACCUAAGCGCCCGCCCGGGCGUAUGGCAACGCCGAGCCAAGCUUCGGCGCCUGCGCCGAUGGAGGUGUAGCGACUAGACGGCACCCACCUAAGGCGAACGAUAUGGUGAAGGCAUAGUCCAGGGAGAGGCGAAAGUCACACAAACCGG [A111G A120C A145G C150A U176A]: 0.0804. Turning to GUGCCUUGCGCCGGGAAACCACGCAAGGGAUGGUGUCAAAUUCGGCGAAACCUAAGCGCCCGCCCGGGCGUAUGGCAACGCCGAGCCAAGCUUCGGCGCCUGCGCCGAUGGAGGUGUAGCGACUAGACGGCACCCACCUAAGGCGAACGAUAUGGUGAAGGCAUAGUCGAGGGAGAGGCGAAAGUCACACAAACCGG [A111G A120C A145G C150A C169G U176A], the reverse-splicing fitness stood at 0.0231. In the case of GUGCCUUGCGCCGGGAAACCACGCAAGGGAUGGUGUCAAAUUCGGCGAAACCUAAGCGCCCGCCCGGGCGUAUGGCAACGCCGAGCCAAGCUUCGGCGCCUGCGCCGAUGGAGGUGUAGCGACUAGACGGCACCCACCUAAGGCGAACGAUAUGGUGAAGGCAUAGUCGAGGGAGCGGCGAAAGUCACACAAACCGG [A111G A120C A145G C150A C169G U176C] it was 0.0221; in that of GUGCCUUGCGCCGGGAAACCACGCAAGGGAUGGUGUCAAAUUCGGCGAAACCUAAGCGCCCGCCCGGGCGUAUGGCAACGCCGAGCCAAGCUUCGGCGCCUGCGCCGAUGGAGGUGUAGCGACUAGACGGCACCCACCUAAGGCGAACGAUAUGGUGAAGGCAUAGUCGAGGGAGGGGCGAAAGUCACACAAACCGG [A111G A120C A145G C150A C169G U176G], 0.00551; in that of GUGCCUUGCGCCGGGAAACCACGCAAGGGAUGGUGUCAAAUUCGGCGAAACCUAAGCGCCCGCCCGGGCGUAUGGCAACGCCGAGCCAAGCUUCGGCGCCUGCGCCGAUGGAGGUGUAGCGACUAGACGGCACCCACCUAAGGCGAACGAUAUGGUGAAGGCAUAGUCAAGGGAGAGGCGAAAGUCACACAAACCGG [A111G A120C A145G C150A C169A U176A], 0.0185.

In the case of GUGCCUUGCGCCGGGAAACCACGCAAGGGAUGGUGUCAAAUUCGGCGAAACCUAAGCGCCCGCCCGGGCGUAUGGCAACGCCGAGCCAAGCUUCGGCGCCUGCGCCGAUGGAGGUGUAGCGACUAGACGGCACCCACCUAAGGCGAACGAUAUGGUGAAGGCAUAGUCAAGGGAGGGGCGAAAGUCACACAAACCGG [A111G A120C A145G C150A C169A U176G], the reverse-splicing fitness stood at 0.00507. For the variant GUGCCUUGCGCCGGGAAACCACGCAAGGGAUGGUGUCAAAUUCGGCGAAACCUAAGCGCCCGCCCGGGCGUAUGGCAACGCCGAGCCAAGCUUCGGCGCCUGCGCCGAUGGAGGUGUAGCGACUAGACGGCACCCACCUAAGGCGAACGAUAUGGUGAAGGCAUAGUCAAGGGAGCGGCGAAAGUCACACAAACCGG [A111G A120C A145G C150A C169A U176C], the reverse-splicing fitness worked out at 0.0181. In the case of GUGCCUUGCGCCGGGAAACCACGCAAGGGAUGGUGUCAAAUUCGGCGAAACCUAAGCGCCCGCCCGGGCGUAUGGCAACGCCGAGCCAAGCUUCGGCGCCUGCGCCGAUGGAGGUGUAGCGACUAGACGGCACCCACCUAAGGCGAACGCUAUGGUGAAGGCAUAGUCCAGGGAGUGGCGAAAGUCACACAAACCGG [A111G A120C A145G] it was 0.688; in that of GUGCCUUGCGCCGGGAAACCACGCAAGGGAUGGUGUCAAAUUCGGCGAAACCUAAGCGCCCGCCCGGGCGUAUGGCAACGCCGAGCCAAGCUUCGGCGCCUGCGCCGAUGGAGGUGUAGCGACUAGACGGCACCCACCUAAGGCGAACGAUAUGGUGAAGGCAUAGUCGAGGGAGUGGCGAAAGUCACACAAACCGG [A111G A120C A145G C150A C169G], 0.0108. The same measure for GUGCCUUGCGCCGGGAAACCACGCAAGGGAUGGUGUCAAAUUCGGCGAAACCUAAGCGCCCGCCCGGGCGUAUGGCAACGCCGAGCCAAGCUUCGGCGCCUGCGCCGAUGGAGGUGUAGCGACUAGACGGCACCCACCUAAGGCGAACGAUAUGGUGAAGGCAUAGUCAAGGGAGUGGCGAAAGUCACACAAACCGG [A111G A120C A145G C150A C169A]: 0.0114.

With GUGCCUUGCGCCGGGAAACCACGCAAGGGAUGGUGUCAAAUUCGGCGAAACCUAAGCGCCCGCCCGGGCGUAUGGCAACGCCGAGCCAAGCUUCGGCGCCUGCGCCGAUGGAGGUGUAGCGACUAGACGGCACCCACCUAAGGCGAACGAUAUGGUGAAGGCAUAGUCUAGGGAGUGGCGAAAGUCACACAAACCGG [A111G A120C A145G C150A C169U], the reverse-splicing fitness was 0.0508. The same measure for GUGCCUUGCGCCGGGAAACCACGCAAGGGAUGGUGUCAAAUUCGGCGAAACCUAAGCGCCCGCCCGGGCGUAUGGCAACGCCGAGCCAAGCUUCGGCGCCUGCGCCGAUGGAGGUGUAGCGACUAGACGGCACCCACCUAAGGCGAACGAUAUGGUGAAGGCAUAGUCCAGGGAGUGGCGAAAGUCACACAAACCGG [A111G A120C A145G C150A]: 0.166.
